This passage reports activity (fold induction) results from US20030199022.

What all share (test): cell_activity
Data set [1] deals with T1, ER3M (in cell) E203W,Q214A,H216G (Homo sapiens) (UniProt P03372).
T1 sequence: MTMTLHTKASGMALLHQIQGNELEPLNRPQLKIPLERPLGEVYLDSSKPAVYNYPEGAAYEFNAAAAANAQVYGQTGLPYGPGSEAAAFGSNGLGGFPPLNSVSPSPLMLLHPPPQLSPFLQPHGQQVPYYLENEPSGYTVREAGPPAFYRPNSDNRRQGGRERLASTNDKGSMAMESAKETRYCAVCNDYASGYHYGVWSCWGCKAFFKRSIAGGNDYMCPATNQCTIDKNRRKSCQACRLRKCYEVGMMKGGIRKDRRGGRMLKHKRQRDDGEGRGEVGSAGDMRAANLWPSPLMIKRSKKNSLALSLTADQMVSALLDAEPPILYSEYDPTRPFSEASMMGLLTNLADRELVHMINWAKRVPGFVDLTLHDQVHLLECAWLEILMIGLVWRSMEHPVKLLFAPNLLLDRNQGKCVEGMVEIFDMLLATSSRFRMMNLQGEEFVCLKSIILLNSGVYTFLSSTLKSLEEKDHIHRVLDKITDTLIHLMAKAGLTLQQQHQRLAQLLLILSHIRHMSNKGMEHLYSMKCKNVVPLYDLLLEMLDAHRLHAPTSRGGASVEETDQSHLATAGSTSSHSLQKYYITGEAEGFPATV
Conditions: HepG2, 10 nM OHT.

Data set [2] addresses T2, ERα wild type (in cell) (Homo sapiens) (UniProt P03372).
T2 sequence: T1 sequence with W203E, A214Q, G216H
Conditions: HepG2, OHT.

Data set [3] has as its target T3, ER4.3 (in cell) E203W,Q214V,G215R,H216P,N217T (Homo sapiens) (UniProt P03372).
T3 sequence: T1 sequence with A214V, G215R, G216P, N217T
Conditions: HepG2, 10 nM OHT.

Substitutions are numbered along the chain they refer to.

As for “GCTAGCGGGCCACTGTGGCCCTGACAACTAGTAAGTCGGGCCACTGTGGCCCGACGTACTATCTCGAGGGGCCACTGTGGCCCTAGAGCTGCAGGTATCGGGCCACTGTGGCCCTAGTTCATTAAAGCTTGGGCCACTGTGGCCCATCAAGATATCGAGATGGGCCACTGTGGCCCATCGACAGGAATTCACGGGCCACTGTGGCCCATCAAGATATCGAGATGGGCCACTGTGGCCCATCGACTCTAGA (double strand) [ATL8/PAL]”, the activity (fold induction) in data set [1] was 117; in data set [2], 52; in data set [3] it was 172.
